Measured values from US20230295298A1 (PRECISION BIOLOGICS, published 2023).
Positions count from the first letter of the chain named.

T1: human recombinant A33 antigen (human, UniProt Q99795 22-235)
T1 construct: also called rH-GPA33; rHGPA33
T1 sequence: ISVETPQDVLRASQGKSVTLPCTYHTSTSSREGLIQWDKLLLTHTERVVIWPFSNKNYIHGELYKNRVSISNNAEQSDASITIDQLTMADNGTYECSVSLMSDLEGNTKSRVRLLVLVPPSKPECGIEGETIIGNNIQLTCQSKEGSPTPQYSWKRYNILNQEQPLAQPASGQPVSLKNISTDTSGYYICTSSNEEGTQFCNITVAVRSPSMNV

T2: human A33 antigen, full length, on cells (human, UniProt Q99795 22-319)
T2 construct: CHO cells transfected with full length A33 cDNA (A33-CHO), or endogenous antigen of LS174T (colon) and AsPC-1 (pancreatic) tumour cells; The cell line is named under assay; also called A33-CHO; A33 antigen on LS174T cells
T2 sequence: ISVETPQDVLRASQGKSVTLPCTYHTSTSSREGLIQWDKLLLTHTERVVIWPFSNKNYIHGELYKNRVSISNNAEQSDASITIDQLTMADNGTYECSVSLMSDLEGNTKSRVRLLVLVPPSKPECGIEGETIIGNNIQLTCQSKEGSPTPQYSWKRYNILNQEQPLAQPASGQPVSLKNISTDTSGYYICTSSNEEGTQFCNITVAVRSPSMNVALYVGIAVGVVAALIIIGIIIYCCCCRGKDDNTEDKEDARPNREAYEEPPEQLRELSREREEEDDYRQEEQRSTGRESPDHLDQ

B1: humanized 31.1 antibody #5 (abb31.1-HC + cdr31.1-LC) (antibody, human IgG1, kappa, V domains shown)
VH: QIQLVQSGAEVKKPGASVKVSCKASGYTFTNYGMNWVRQAPGKGLEWMGWINTYTGEPTYAQKFQGRVTFTLDTSISTAYMELSRLRSDDTAVYFCARAYYGKYFDYWGQGTTVTVSS
VL: SIVMTQSPSSLSASVGDRVTITCKASQSVSNDVAWYQQKPGQSPKLLIYYASNRYTGVPDRFSGSGYGTDFTLTISSLQPEDFAVYFCQQDYSSPLTFGAGTKLEIKR
notes: Full heavy and light chains; supernatant in the first screen, Protein A/G purified in the second round; also called Sample ID 5; abb-HC + cdr-LC
B2: H31.1 #5-biotin (antibody, human IgG1, kappa, V domains shown)
VH: B1 VH
VL: B1 VL
modifications: biotinylated antibody, sites not stated
notes: Biotinylated form of antibody #5; also called biotinylated #5; biotinylated h31.1 #5
B3: humanized 31.1 antibody #6 (abb31.1-HC + abb31.1-LC) (antibody, human IgG1, kappa, V domains shown)
VH: B1 VH
VL: B1 VL with V3Q, K24R, T56S
notes: Full heavy and light chains; supernatant in the first screen, Protein A/G purified in the second round; also called Sample ID 6; abb-HC + abb-LC
B4: H31.1 #6-biotin (antibody, human IgG1, kappa, V domains shown)
VH: B1 VH
VL: B1 VL with V3Q, K24R, T56S
modifications: biotinylated antibody, sites not stated
notes: Biotinylated form of antibody #6; also called biotinylated #6; biotinylated h31.1 #6
B5: humanized 31.1 antibody #15 (ven-HC + sdr-LC) (antibody, human IgG1, kappa, V domains shown)
VH: QIQLVQSGPEVKKPGASVKISCKASGYTFTNYGMNWVKQAPGQGLKWMGWINTYTGEPTYADDFKGRFAFTLDTSISTAYLEISRLRSDDTAVYFCARAYYGKYFDYWGQGTTLTVSS
VL: B1 VL with V3Q, K24R, V29I, V33L
notes: Full heavy and light chains; transient Expi293 expression, tested as culture supernatant; also called Sample ID 15; ven31.1-HC + sdr31.1-LC
B6: humanized 31.1 antibody #16 (ven31.1-HC + ven31.1-LC) (antibody, human IgG1, kappa, V domains shown)
VH: B5 VH
VL: B1 VL with A13V, L73F, L78V, F83L, I106L
notes: Full heavy and light chains; supernatant in the first screen, Protein A/G purified in the third round; also called Sample ID 16; ven-HC + ven-LC
B7: humanized 31.1 antibody #13 (ven-HC + cdr-LC) (antibody, human IgG1, kappa, V domains shown)
VH: B5 VH
VL: B1 VL
notes: Full heavy and light chains; transient Expi293 expression, tested as culture supernatant; also called Sample ID 13; ven31.1-HC + cdr31.1-LC
B8: humanized 31.1 antibody #14 (ven-HC + abb-LC) (antibody, human IgG1, kappa, V domains shown)
VH: B5 VH
VL: B1 VL with V3Q, K24R, T56S
notes: Full heavy and light chains; transient Expi293 expression, tested as culture supernatant; also called Sample ID 14; ven31.1-HC + abb31.1-LC
B9: humanized 31.1 antibody #9 (sdr-HC + cdr-LC) (antibody, human IgG1, kappa, V domains shown)
VH: B1 VH with T53P
VL: B1 VL
notes: Full heavy and light chains; transient Expi293 expression, tested as culture supernatant; also called Sample ID 9; sdr31.1-HC + cdr31.1-LC
B10: humanized 31.1 antibody #4 (cdr-HC + ven-LC) (antibody, human IgG1, kappa, V domains shown)
VH: B5 VH with P9A, I20V, Q43K, L81M, I83L, L114V
VL: B1 VL with A13V, L73F, L78V, F83L, I106L
notes: Full heavy and light chains; transient Expi293 expression, tested as culture supernatant; also called Sample ID 4; cdr31.1-HC + ven31.1-LC
B11: humanized 31.1 antibody #10 (sdr-HC + abb-LC) (antibody, human IgG1, kappa, V domains shown)
VH: B1 VH with T53P
VL: B1 VL with V3Q, K24R, T56S
notes: Full heavy and light chains; transient Expi293 expression, tested as culture supernatant; also called Sample ID 10; sdr31.1-HC + abb31.1-LC
B12: humanized 31.1 antibody #2 (cdr-HC + abb-LC) (antibody, human IgG1, kappa, V domains shown)
VH: B5 VH with P9A, I20V, Q43K, L81M, I83L, L114V
VL: B1 VL with V3Q, K24R, T56S
notes: Full heavy and light chains; transient Expi293 expression, tested as culture supernatant; also called Sample ID 2; cdr31.1-HC + abb31.1-LC
B13: humanized 31.1 antibody #8 (abb-HC + ven-LC) (antibody, human IgG1, kappa, V domains shown)
VH: B1 VH
VL: B1 VL with A13V, L73F, L78V, F83L, I106L
notes: Full heavy and light chains; transient Expi293 expression, tested as culture supernatant; also called Sample ID 8; abb31.1-HC + ven31.1-LC
B14: humanized 31.1 antibody #12 (sdr-HC + ven-LC) (antibody, human IgG1, kappa, V domains shown)
VH: B1 VH with T53P
VL: B1 VL with A13V, L73F, L78V, F83L, I106L
notes: Full heavy and light chains; transient Expi293 expression, tested as culture supernatant; also called Sample ID 12; sdr31.1-HC + ven31.1-LC
B15: humanized 31.1 antibody #1 (cdr-HC + cdr-LC) (antibody, human IgG1, kappa, V domains shown)
VH: B5 VH with P9A, I20V, Q43K, L81M, I83L, L114V
VL: B1 VL
notes: Full heavy (448 aa) and light (214 aa) chains; transient Expi293 expression, tested as culture supernatant; also called Sample ID 1; cdr31.1-HC + cdr31.1-LC
B16: humanized 31.1 antibody #7 (abb-HC + sdr-LC) (antibody, human IgG1, kappa, V domains shown)
VH: B1 VH
VL: B1 VL with V3Q, K24R, V29I, V33L
notes: Full heavy and light chains; transient Expi293 expression, tested as culture supernatant; also called Sample ID 7; abb31.1-HC + sdr31.1-LC
B17: humanized 31.1 antibody #3 (cdr-HC + sdr-LC) (antibody, human IgG1, kappa, V domains shown)
VH: B5 VH with P9A, I20V, Q43K, L81M, I83L, L114V
VL: B1 VL with V3Q, K24R, V29I, V33L
notes: Full heavy and light chains; transient Expi293 expression, tested as culture supernatant; also called Sample ID 3; cdr31.1-HC + sdr31.1-LC

What follows are binders tested against T1, human recombinant A33 antigen (assay: rH-GPA33 binding ELISA).

First: B1
Second: B2
The EC50 of the first is 1.7-fold lower: 0.396 µg/mL for the first, 0.679 µg/mL for the second.

Going from B3 to B4, the EC50 rises from 1.23 µg/mL to 12.8 µg/mL (10-fold).

What follows are binders tested against T2, human A33 antigen, full length, on cells (assay: flow cytometry, AsPC-1 cells (first AsPC-1 column)).

Compared with B1, B2 is 1.7-fold higher in EC50: 0.235 µg/mL for the first, 0.408 µg/mL for the second.

B3 and B4 are within 1.5-fold of each other in EC50: 0.276 µg/mL for the first, 0.368 µg/mL for the second.

These binders were tested against T2, human A33 antigen, full length, on cells (assay: flow cytometry, AsPC-1 cells (second AsPC-1 column)).

B1 and B3 are within 1.5-fold of each other in EC50: 0.122 µg/mL for the first, 0.152 µg/mL for the second.

What follows are binders tested against T1, human recombinant A33 antigen (assay: rH-GPA33 binding ELISA, 2ug/mL of 31.1, supernatant).
Protocol: (§1) Human IgG ELISA, rH-GPA33 Binding ELISA, cell Flow Cytometry (LS174T or AsPAC1), IHC staining (LS174T FFPE, tumor FFPE and Frozen tumor sections) and Coomassie blue staining of SDS-PAGE gel were used for the screening. Antibody in the culture supernatant was purified by Protein A/G purification in the column and dissolved in PBS buffer after three times dialysis. Aliquots of the antibodies were kept at -20° C. for storage.
(§2) Each combination was produced by transient transfection by using Expi293 Expression System Kit (Gibco, cat# A14635). […] Methods of Human IgG ELISA, rH-GPA33 Binding ELISA, LS174T cell Flow Cytometry, IHC staining on LS174T FFPE sections and Coomassie blue staining of SDS-PAGE gel were used for the initial screening.

Going from B1 to B5, the “OD Value of rH-GPA33 Binding ELISA” value falls from 0.85 OD to 0.46 OD.

Going from B6 to B7, the “OD Value of rH-GPA33 Binding ELISA” value falls from 1.74 OD to 1.27 OD.

Compared with B8, B9 is lower in “OD Value of rH-GPA33 Binding ELISA” value: 1.44 OD for the first, 0.07 OD for the second.

Compared with B3, B10 is higher in “OD Value of rH-GPA33 Binding ELISA” value: 0.74 OD for the first, 1.27 OD for the second.

Compared with B11, B12 is higher in “OD Value of rH-GPA33 Binding ELISA” value: 0.07 OD for the first, 0.86 OD for the second.

Compared with B13, B14 is lower in “OD Value of rH-GPA33 Binding ELISA” value: 1.2 OD for the first, 0.06 OD for the second.

Compared with B15, B16 is lower in “OD Value of rH-GPA33 Binding ELISA” value: 0.8 OD for the first, 0.2 OD for the second.

For B17, the “OD Value of rH-GPA33 Binding ELISA” value was 0.29 OD.

What follows are binders tested against T2, human A33 antigen, full length, on cells (assay: flow cytometry, LS-174T cells).

B1 and B3 are within 1.5-fold of each other in EC50: 0.0625 µg/mL for the first, 0.0809 µg/mL for the second.

Each binder was assayed against T2, human A33 antigen, full length, on cells (assay: flow cytometry on LS174T cells, 0.37ug/mL).
Protocol: as §1, §2

Going from B1 to B5, the MFI falls from 804 MFI to 689 MFI.

Going from B6 to B7, the MFI rises from 966 MFI to 1150 MFI.

Going from B8 to B9, the MFI falls from 1060 MFI to 6.65 MFI.

Going from B3 to B10, the MFI rises from 628 MFI to 726 MFI.

Compared with B11, B12 is higher in MFI: 6.2 MFI for the first, 821 MFI for the second.

First: B13
Second: B14
The MFI of the first is higher: 934 MFI for the first, 10.6 MFI for the second.

Compared with B15, B16 is lower in MFI: 878 MFI for the first, 481 MFI for the second.

B17 showed an MFI of 520 MFI.

Each binder was assayed against T2, human A33 antigen, full length, on cells (assay: IHC on LS174T FFPE sections, 20ug/mL, repeat result).

Compared with B1, B6 is lower in “H-Score of IHC” value: 100 H-Score for the first, 0 H-Score for the second.

Compared with B8, B3 is higher in “H-Score of IHC” value: 30 H-Score for the first, 240 H-Score for the second.

With B11 the “H-Score of IHC” value was 115 H-Score.

Each binder was assayed against T2, human A33 antigen, full length, on cells (assay: IHC on LS174T FFPE sections, 20ug/mL, first result).

First: B1
Second: B6
The “H-Score of IHC” value of the first is higher: 240 H-Score for the first, 0 H-Score for the second.

Compared with B8, B3 is higher in “H-Score of IHC” value: 125 H-Score for the first, 230 H-Score for the second.

In the case of B11, the “H-Score of IHC” value is reported as 240 H-Score.

What follows are binders tested against T2, human A33 antigen, full length, on cells (assay: IHC on LS174T FFPE sections, 20ug/mL).
Protocol: as §1, §2

Compared with B5, B7 is lower in “H-Score of IHC” value: 90 H-Score for the first, 20 H-Score for the second.

Compared with B9, B10 is lower in “H-Score of IHC” value: 150 H-Score for the first, 0 H-Score for the second.

Going from B12 to B13, the “H-Score of IHC” value rises from 0 H-Score to 125 H-Score.

Compared with B14, B15 is lower in “H-Score of IHC” value: 30 H-Score for the first, 0 H-Score for the second.

Going from B16 to B17, the “H-Score of IHC” value falls from 120 H-Score to 0 H-Score.
